US20230125788, “TDP-43 MODULATING AGENTS AND USES THEREOF” (Washington University, published 2023)

T1: TDP-43 RRM1-2 (UniProt Q13148 Q13148:102-269)
T1 chain: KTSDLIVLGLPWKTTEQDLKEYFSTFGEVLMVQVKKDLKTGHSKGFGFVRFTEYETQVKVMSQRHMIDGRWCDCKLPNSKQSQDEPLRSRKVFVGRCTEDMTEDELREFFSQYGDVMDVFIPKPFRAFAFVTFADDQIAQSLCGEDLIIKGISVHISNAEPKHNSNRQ

T2: TDP-43 deltaN (UniProt Q13148 Q13148:102-414)
T2 chain: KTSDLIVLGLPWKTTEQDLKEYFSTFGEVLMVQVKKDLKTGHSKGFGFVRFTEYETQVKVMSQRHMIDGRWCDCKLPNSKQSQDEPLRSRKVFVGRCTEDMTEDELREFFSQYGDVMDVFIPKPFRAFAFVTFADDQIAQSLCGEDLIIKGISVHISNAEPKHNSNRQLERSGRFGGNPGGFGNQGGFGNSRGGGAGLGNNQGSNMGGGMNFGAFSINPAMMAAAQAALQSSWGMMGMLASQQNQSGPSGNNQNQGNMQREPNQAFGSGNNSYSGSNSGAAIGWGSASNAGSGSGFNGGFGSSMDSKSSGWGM


Legend:
[1] = target: T3, TDP-43 WT (UniProt Q13148 Q13148:1-414); test: FP; apparent; 300 mM NaCl, 10 mM Tris pH 8.0; settings: tags: N-terminal His6-SUMO (Smt3), E. coli BL21(DE3), pET28b(+)-SUMO-TDP43; label: FITC
Experimental: Each point is the average of >3 technical and 3 biological replicates, respectively (SEM).
Recombinant TDP-43 wild-type (WT) and constructs previously purified were serially diluted in a 1:2 ratio (from 75 to 0 nM) into a 300 mM of NaCl, 10 mM of Tris (pH 8.0), 5% glycerol, 5% sucrose, 1 mM of TCEP buffer solution. A(GU)₆ RNA labeled with fluorescein isothiocyanate (FITC) from IDT was used at a final concentration of 0.6, 1.3, 2.5, and 5 nM. […] The anisotropy measurements were performed in a Biotek SYNERGY Neo2 (BioSPX) plate reader with excitation and emission wavelengths of 480 and 520 nm, respectively. To assess the binding curves, the data were fitted as previously described. Data analysis was performed using GraphPad Prism 5.

[2] = target: T1, TDP-43 RRM1-2; test: FP; apparent; 300 mM NaCl; settings: tags: N-terminal His6-SUMO; label: FITC
[3] = target: T2, TDP-43 deltaN; test: FP; apparent; 300 mM NaCl; settings: tags: N-terminal His6-SUMO; label: FITC
[4] = target: T3, TDP-43 WT; test: EMSA; at least three TDP-43 bound per oligo; 150 mM NaCl, 2 mM MgCl2, Tris pH 8; settings: tags: N-terminal His6-SUMO (Smt3), E. coli BL21(DE3), pET28b(+)-SUMO-TDP43; label: 5' 700 nm IR dye
[5] = target: T3, TDP-43 WT; test: FP; Kd dramatically lower than unmodified; values only in figure; settings: tags: N-terminal His6-SUMO (Smt3), E. coli BL21(DE3), pET28b(+)-SUMO-TDP43
[6] = target: T3, TDP-43 WT; test: FP; higher Kd than modified; values only in figure; settings: tags: N-terminal His6-SUMO (Smt3), E. coli BL21(DE3), pET28b(+)-SUMO-TDP43

T3 sequence (Q13148 whole entry, one chain of several): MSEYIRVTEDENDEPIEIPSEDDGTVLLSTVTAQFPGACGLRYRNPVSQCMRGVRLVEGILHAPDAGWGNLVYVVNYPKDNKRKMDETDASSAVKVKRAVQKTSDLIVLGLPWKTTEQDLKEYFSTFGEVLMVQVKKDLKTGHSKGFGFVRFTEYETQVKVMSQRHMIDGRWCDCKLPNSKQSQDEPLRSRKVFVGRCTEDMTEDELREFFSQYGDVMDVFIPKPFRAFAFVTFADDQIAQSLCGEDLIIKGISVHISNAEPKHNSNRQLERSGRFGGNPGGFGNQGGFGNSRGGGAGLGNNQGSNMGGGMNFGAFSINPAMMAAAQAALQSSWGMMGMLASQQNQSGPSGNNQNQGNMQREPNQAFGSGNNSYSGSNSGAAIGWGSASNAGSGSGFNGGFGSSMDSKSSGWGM

Binder | binding result [5] | binding result [6] | further results
AGUGUGUGUGUGU (ssRNA, 2'-OMe and PS unless otherwise noted (general statement)) [A(GU)6-FITC] |  |  | Kd [1]: 800 pM; Kd [2]: 800 pM; Kd [3]: 700 pM
GAGAGAGCGCGUGCAGAGACUUGGUGGUGCAUAA (ssRNA) [CLIP34 IR700] |  |  | binding result [4]: binds
AGTGTGTGTGTGT (XNA, 2'-OMe all; PS all linkages) [A(GU)6 2OMe] | binds |  | 
AGUGUGUGUGUGU (ssRNA) [A(GU)6 unmodified] |  | binds | 
GAGAGAGCGCGTGCAGAGACTTGGTGGTGCATAA (XNA, 2'-OMe all; PS all linkages) [CLIP34 2OMe] | binds |  | 
GAGAGAGCGCGUGCAGAGACUUGGUGGUGCAUAA (ssRNA) [CLIP34 unmodified] |  | binds | 
